Data taken from US20160039904A1, “STABILIZED SINGLE HUMAN CD4 DOMAINS AND FUSION PROTEINS” (priority 2013, published 2016).

Assays:
Assay in all cases: cell-based or functional assay
[1] = target: HIV-1 Env of isolate CNE20 (HIV-1)
[2] = target: HIV-1 Env of isolate CAM0015BBY.EC3 (HIV-1)
[3] = target: HIV-1 Env of isolate PBL286.VRC36aPV (HIV-1)
[4] = target: HIV-1 Env of isolate CH110 (HIV-1)
[5] = target: HIV-1 Env of isolate CNE47 (HIV-1)
[6] = target: HIV-1 Env of isolate CNE4 (HIV-1)
[7] = target: HIV-1 Env of isolate CNE6 (HIV-1)
[8] = target: HIV-1 Env of isolate CNE1 (HIV-1)
[9] = target: HIV-1 Env of isolate CH117 (HIV-1)
[10] = target: HIV-1 Env of isolate CNE65 (HIV-1)
[11] = target: HIV-1 Env of isolate CH64 (HIV-1)
[12] = target: HIV-1 Env of isolate CH91 (HIV-1)
[13] = target: HIV-1 Env of isolate CNE23 (HIV-1)
[14] = target: HIV-1 Env of isolate KNH1088.EC5 (HIV-1)
[15] = target: HIV-1 Env of isolate CNE14 (HIV-1)
[16] = target: HIV-1 Env of isolate CNE55 (HIV-1)
[17] = target: HIV-1 Env of isolate CNE53 (HIV-1)
[18] = target: HIV-1 Env of isolate AE03 (HIV-1)
[19] = target: HIV-1 Env of isolate CNE30 (HIV-1)
[20] = target: HIV-1 Env of isolate CNE68 (HIV-1)
[21] = target: HIV-1 Env of isolate CNE9 (HIV-1)
[22] = target: HIV-1 Env of isolate CNE5 (HIV-1)
[23] = target: HIV-1 Env of isolate 57128.VRC18 (HIV-1)
[24] = target: HIV-1 Env of isolate CNE3 (HIV-1)
[25] = target: HIV-1 Env of isolate AE20 (HIV-1)
[26] = target: HIV-1 Env of isolate CNE107 (HIV-1)
[27] = target: HIV-1 Env of isolate CNE64 (HIV-1)
[28] = target: HIV-1 Env of isolate CNE11 (HIV-1)
[29] = target: HIV-1 Env of isolate CNE15 (HIV-1)
[30] = target: HIV-1 Env of isolate GS-015.EC12 (HIV-1)
[31] = target: HIV-1 Env of isolate CNE49 (HIV-1)
[32] = target: HIV-1 Env of isolate CNE40 (HIV-1)
[33] = target: HIV-1 Env of isolate Bal.EC1 TC (HIV-1)
[34] = target: HIV-1 Env of isolate CH119 (HIV-1)
[35] = target: HIV-1 Env of isolate KNH1144.EC1 (HIV-1)
[36] = target: HIV-1 Env of isolate CNE59 (HIV-1)
[37] = target: HIV-1 Env of isolate N1 1046.e3 PV (HIV-1)
[38] = target: HIV-1 Env of isolate CNE17 (HIV-1)
[39] = target: HIV-1 Env of isolate CNE57 (HIV-1)
[40] = target: HIV-1 Env of isolate 55815.EC3 (HIV-1)
[41] = target: HIV-1 Env of isolate BZ167.ec9 (HIV-1)
[42] = target: HIV-1 Env of isolate CM240.EC1 (HIV-1)
[43] = target: HIV-1 Env of isolate CNE58 (HIV-1)

Substance: D1D2Fc (from UniProt P01730 26-203) (Fc fusion)
- neutralization IC50 [1]: 65 nM
- neutralization IC90 [1]: > 250 nM
- IC50, neutralization in TZM-bl cell-based assay [2]: 41 nM
- IC90, neutralization in TZM-bl cell-based assay [2]: > 250 nM
- IC50, neutralization in TZM-bl cell-based assay [3]: 87 nM
- IC90, neutralization in TZM-bl cell-based assay [3]: > 250 nM
- neutralization IC50 [4]: 28 nM
- neutralization IC90 [4]: > 250 nM
- neutralization IC50 [5]: 152 nM
- neutralization IC90 [5]: > 250 nM
- neutralization IC50 [6]: 3.9 nM
- neutralization IC90 [6]: 24 nM
- neutralization IC50 [7]: 68 nM
- neutralization IC90 [7]: 192 nM
- neutralization IC50 [8]: 197 nM
- neutralization IC90 [8]: > 250 nM
- neutralization IC50 [9]: 27 nM
- neutralization IC90 [9]: > 250 nM
- neutralization IC50 [10]: 15 nM
- neutralization IC90 [10]: 115 nM
- neutralization IC50 [11]: 48 nM
- neutralization IC90 [11]: > 250 nM
- neutralization IC50 [12]: 35 nM
- neutralization IC90 [12]: > 250 nM
- neutralization IC50 [13]: > 250 nM
- neutralization IC90 [13]: > 250 nM
- IC50, neutralization in TZM-bl cell-based assay [14]: > 250 nM
- IC90, neutralization in TZM-bl cell-based assay [14]: > 250 nM
- neutralization IC50 [15]: 105 nM
- neutralization IC90 [15]: 248 nM
- neutralization IC50 [16]: 213 nM
- neutralization IC90 [16]: > 250 nM
- neutralization IC50 [17]: 14 nM
- neutralization IC90 [17]: > 250 nM
- neutralization IC50 [18]: > 250 nM
- neutralization IC90 [18]: > 250 nM
- neutralization IC50 [19]: 17 nM
- neutralization IC90 [19]: 211 nM
- neutralization IC50 [20]: 9.7 nM
- neutralization IC90 [20]: 133 nM
- neutralization IC50 [21]: 9.9 nM
- neutralization IC90 [21]: 63 nM
- neutralization IC50 [22]: 94 nM
- neutralization IC90 [22]: 236 nM
- IC90, neutralization in TZM-bl cell-based assay [23]: 41 nM
- neutralization IC50 [24]: > 250 nM
- neutralization IC90 [24]: > 250 nM
- neutralization IC50 [25]: 50 nM
- neutralization IC90 [25]: > 250 nM
- neutralization IC50 [26]: 135 nM
- neutralization IC90 [26]: > 250 nM
- neutralization IC50 [27]: 12 nM
- neutralization IC90 [27]: 113 nM
- neutralization IC50 [28]: > 250 nM
- neutralization IC90 [28]: > 250 nM
- neutralization IC50 [29]: 106 nM
- neutralization IC90 [29]: > 250 nM
- IC50, neutralization in TZM-bl cell-based assay [30]: 0.2 nM
- neutralization IC50 [31]: 21 nM
- neutralization IC90 [31]: 224 nM
- neutralization IC50 [32]: 0.06 nM
- neutralization IC90 [32]: 0.5 nM
- IC50, neutralization in TZM-bl cell-based assay [33]: 0.6 nM
- neutralization IC50 [34]: 85 nM
- neutralization IC90 [34]: > 250 nM
- IC50, neutralization in TZM-bl cell-based assay [35]: 4.8 nM
- neutralization IC50 [36]: 10 nM
- neutralization IC90 [36]: 220 nM
- IC50, neutralization in TZM-bl cell-based assay [37]: 183 nM
- IC90, neutralization in TZM-bl cell-based assay [37]: > 250 nM
- neutralization IC50 [38]: 11 nM
- neutralization IC90 [38]: 231 nM
- neutralization IC50 [39]: 250 nM
- neutralization IC90 [39]: > 250 nM
- IC50, neutralization in TZM-bl cell-based assay [40]: 6.2 nM
- IC90, neutralization in TZM-bl cell-based assay [40]: 116 nM
- IC50, neutralization in TZM-bl cell-based assay [41]: 13 nM
- IC90, neutralization in TZM-bl cell-based assay [41]: 60 nM
- IC50, neutralization in TZM-bl cell-based assay [42]: 20 nM
- IC90, neutralization in TZM-bl cell-based assay [42]: > 250 nM
- neutralization IC50 [43]: > 250 nM
- neutralization IC90 [43]: > 250 nM
